Laboratory results as given in US10093741 (FUSION PHARMACEUTICALS, dated 2018).

Legend:
[1] = target: T1, insulin-like growth factor-1 receptor (IGF-1R) (human, UniProt P08069 31-1367); test: cell-based or functional assay
[2] = target: T1, insulin-like growth factor-1 receptor …; test: cell-based or functional assay; remark: listed apart in the source
[3] = target: T1, insulin-like growth factor-1 receptor …; test: saturation radioligand binding on A431 epidermoid carcinoma cells
Experimental: The plates were incubated at 37° C. for 1 h. Following incubation, media was aspirated from each well and discarded. The cells were washed and 100 µl of binding buffer (total binding) or 4 µM cold-antibody (non-specific binding) added to designated wells. Plates were incubated at 4° C. for 1 h with mild shaking. Following the blocking step, 100 µl of labeled conjugate was added to each well. The plates were then incubated at 4° C. for 2 h. Following incubation, the contents of each well was aspirated and discarded. The cells were washed twice with PBS and were then lysed with 1% Triton-X-100. The lysates were transferred to counting tubes and run with labeled conjugate standards on the Wizard 1470 gamma counter to determine the radioactivity content (in counts per minute (CPM)) for each lysate. The remaining lysate from each well (25 µl) was transferred to a 96-well plate, and the protein content of each lysate determined using a standard protein quantification assay. Total, non-specific and specific ligand binding determinations, mass of bound conjugate in each lysate were calculated by converting lysate CPM to fmol bound using the specific activity of the conjugate standards and then normalizing the fmol bound to the protein content of each lysate (in milligrams). Specific binding was determined by subtracting the non-specific binding from total binding. […]

[4] = target: T1, insulin-like growth factor-1 receptor …; test: saturation radioligand binding on LnCaP cells (prostate)
Experimental: (§1) Twenty-four hours prior to the start of the experiment, 1.5 ×10^5 cells were seeded in 48-well microplates in 500 µl supplemented medium. The radiolabeled conjugate was diluted with binding buffer (PBS+0.5% BSA) to a range of concentrations from 0.08 nM to 40 nM; final assay concentration 0.04 to 20 nM. At the start of the assay, the media is aspirated, discarded and 500 µl of serum-free DMEM was added to each well. The plates were incubated at 37° C. for 1 h. Following incubation, media was aspirated from each well and discarded. The cells were washed and 100 µl of binding buffer (total binding) or 4 µM cold-antibody (non-specific binding) added to designated wells. […] The lysates were transferred to counting tubes and run with labeled conjugate standards on the Wizard 1470 gamma counter to determine the radioactivity content (in counts per minute (CPM)) for each lysate. The remaining lysate from each well (25 µl) was transferred to a 96-well plate, and the protein content of each lysate determined using a standard protein quantification assay. Total, non-specific and specific ligand binding determinations, mass of bound conjugate in each lysate were calculated by converting lysate CPM to fmol bound using the specific activity of the conjugate standards and then normalizing the fmol bound to the protein content of each lysate (in milligrams). […]

[5] = target: T1, insulin-like growth factor-1 receptor …; test: saturation radioligand binding on IGF-1R expressing A431 cells, 4 °C, specific binding fitted to single-site model
Experimental: The purpose of this assay was to ensure that these new radioconjugates maintained binding characteristics consistent with the native antibody in an IGF-1R expressing A431 cell line. Twenty-four hours prior to the start of the experiment, 1.5×10^5 A431 cells were seeded in 48-well microplates in 500 μl supplemented medium. The radioconjugate was diluted with binding buffer (PBS+0.5% BSA) to a range of concentrations from 0.08 nM to 40 nM; final assay concentration 0.04 to 20 nM. At the start of the assay, the media is aspirated, discarded and 500 μl of serum-free DMEM was added to each well. The plates were incubated at 37° C. for 1 hour. Following incubation, media was aspirated from each well and discarded. The cells were washed and 100 μl of binding buffer (total binding assay) or, for non-specific binding assay, 4 μM cold-antibody was added to designated wells. Plates were incubated at 4° C. for 1 hour with mild shaking. Following the blocking step, 100 μl of radioimmunoconjugate was added to each well. The plates were then incubated at 4° C. for 2 hours. Following incubation, the contents of each well was aspirated and discarded. The cells were washed twice with PBS and were then lysed with 1% Triton-X-100. The lysates were transferred to counting tubes and run with radioconjugate standards on the Wizard 1470 gamma counter to determine the radioactivity content (in counts per minute (CPM)) for each lysate. The remaining lysate from each well (25 μl) was transferred to a 96-well plate, and the protein content of each lysate determined using a standard protein quantification assay. Total, non-specific and specific ligand binding determinations, mass of bound conjugate in each lysate were calculated by converting lysate CPM to fmol bound using the specific activity of the conjugate standards and then normalizing the fmol bound to the protein content of each lysate (in milligrams). Specific binding was determined by subtracting the non-specific binding from total binding. […]

[6] = target: T1, insulin-like growth factor-1 receptor …; test: saturation radioligand binding on PC-3 cells (prostate)
Experimental: as §1

[7] = target: T1, insulin-like growth factor-1 receptor …; test: saturation radioligand binding on BxPC3 cells (pancreatic)
Experimental: as §1

[8] = target: T1, insulin-like growth factor-1 receptor …; test: saturation radioligand binding on Du-145 cells (prostate)
Experimental: as §1

[9] = target: T1, insulin-like growth factor-1 receptor …; test: saturation radioligand binding on A431 cells (epidermoid carcinoma)
Experimental: as §1

[10] = target: T1, insulin-like growth factor-1 receptor …; test: saturation radioligand binding on MiaPaca-II cells (pancreatic)
Experimental: as §1

[11] = target: T1, insulin-like growth factor-1 receptor …; test: saturation radioligand binding on H226 cells (NSCLC)
Experimental: as §1

[12] = target: T1, insulin-like growth factor-1 receptor …; test: saturation radioligand binding on A549 cells (NSCLC)
Experimental: as §1

T1 sequence (P08069 31-1367): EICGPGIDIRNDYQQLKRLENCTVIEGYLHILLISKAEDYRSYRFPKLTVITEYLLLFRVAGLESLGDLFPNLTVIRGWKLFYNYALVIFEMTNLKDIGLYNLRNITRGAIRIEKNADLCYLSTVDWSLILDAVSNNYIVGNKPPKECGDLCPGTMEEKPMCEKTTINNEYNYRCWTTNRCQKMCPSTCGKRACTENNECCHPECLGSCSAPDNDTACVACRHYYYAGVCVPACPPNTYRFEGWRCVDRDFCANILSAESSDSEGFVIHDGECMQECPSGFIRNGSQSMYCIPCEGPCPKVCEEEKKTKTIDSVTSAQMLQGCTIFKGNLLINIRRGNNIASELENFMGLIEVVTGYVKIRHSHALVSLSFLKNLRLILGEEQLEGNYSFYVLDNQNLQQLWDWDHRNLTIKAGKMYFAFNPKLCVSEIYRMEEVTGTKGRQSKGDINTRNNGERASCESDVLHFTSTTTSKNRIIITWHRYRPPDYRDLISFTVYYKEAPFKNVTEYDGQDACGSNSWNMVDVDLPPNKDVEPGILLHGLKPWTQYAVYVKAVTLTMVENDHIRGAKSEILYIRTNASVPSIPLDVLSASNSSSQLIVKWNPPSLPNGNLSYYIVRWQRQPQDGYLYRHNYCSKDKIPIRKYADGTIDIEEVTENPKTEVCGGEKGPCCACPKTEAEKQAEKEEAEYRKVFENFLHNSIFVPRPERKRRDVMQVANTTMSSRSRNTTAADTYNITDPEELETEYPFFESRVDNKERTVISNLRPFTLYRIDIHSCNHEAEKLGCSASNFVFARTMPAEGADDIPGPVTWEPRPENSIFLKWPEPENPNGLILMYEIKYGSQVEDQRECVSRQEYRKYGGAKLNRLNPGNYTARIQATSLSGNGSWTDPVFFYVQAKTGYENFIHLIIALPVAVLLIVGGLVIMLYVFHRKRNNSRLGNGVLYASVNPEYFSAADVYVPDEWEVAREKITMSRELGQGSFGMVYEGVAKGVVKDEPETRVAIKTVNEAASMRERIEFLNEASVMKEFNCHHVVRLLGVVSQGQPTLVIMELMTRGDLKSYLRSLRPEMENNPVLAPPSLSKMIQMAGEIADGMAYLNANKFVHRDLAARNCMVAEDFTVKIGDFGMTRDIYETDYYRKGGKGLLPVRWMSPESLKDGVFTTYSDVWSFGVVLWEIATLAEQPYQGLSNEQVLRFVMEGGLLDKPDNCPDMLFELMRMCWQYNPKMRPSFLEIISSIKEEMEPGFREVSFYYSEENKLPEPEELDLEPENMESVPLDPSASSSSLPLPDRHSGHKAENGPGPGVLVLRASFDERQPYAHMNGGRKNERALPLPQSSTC

B1: HuMIGF-1R (AVE1642) (antibody, human IgG1, kappa)
light: DVVMTQTPLSLPVSLGDPASISCRSSQSIVHSNVNTYLEWYLQKPGQSPRLLIYKVSNRFSGVPDRFSGSGAGTDFTLRISRVEAEDLGIYYCFQGSHVPPTFGGGTKLEIKRTVAAPSVFIFPPSDEQLKSGTASVVCLLNNFYPREAKVQWKVDNALQSGNSQESVTEQDSKDSTYSLSSTLTLSKADYEKHKVYACEVTHQGLSSPVTKSFNRGEC
heavy: not shown
B1 was tested, and the “Compound Potency (IC50; µg/mL): inhibition of IGF-1 ligand stimulated autophosphorylation of IGF-1R in A431 cells, phospho-IGF-1R ELISA” value [1] was 0.04 µg/mL and the “Conjugate Potency (IC50; µg/mL): inhibition of IGF-1 ligand stimulated autophosphorylation of IGF-1R in A431 cells, phospho-IGF-1R ELISA; degree of substitution 0 DOTA/mAb (native antibody)” value [2] was 0.04 µg/mL.

B2: [^111In]-Compound C-HuMIGF-1R (antibody)
light: B1 light
heavy: not shown
modifications: Compound C (DOTA-GA with PEG3 linker, TFP ester) conjugated to the antibody, sites not stated; chelate loaded with 111In
In the case of B2, the “Compound Potency (IC50; µg/mL): inhibition of IGF-1 ligand stimulated autophosphorylation of IGF-1R in A431 cells, phospho-IGF-1R ELISA” value [1] is reported as 0.19 µg/mL and the Kd [3] is reported as 6.9 nM.

B3: [^177Lu]-Compound C-HuMIGF-1R (antibody)
light: B1 light
heavy: not shown
modifications: Compound C (DOTA-GA with PEG3 linker, TFP ester) conjugated to the antibody, sites not stated; chelate loaded with 177Lu
B3 was tested, and the Kd [4] was 1.6 nM, the “Compound Potency (IC50; µg/mL): inhibition of IGF-1 ligand stimulated autophosphorylation of IGF-1R in A431 cells, phospho-IGF-1R ELISA” value [1] was 0.04 µg/mL and the Kd [5] was 2.2 nM. The Kd [6] was 1.7 nM, the Kd [7] was 2.9 nM and the Kd [8] was 3 nM. For the same binder, the Kd [9] was 2.2 nM, the Kd [10] was 1.9 nM and the Kd [11] was 2.3 nM. The Kd [12] was 0.7 nM.

B4: [^177Lu]-Compound A-HuMIGF-1R (antibody)
light: B1 light
heavy: not shown
modifications: Compound A (DOTA-GA anhydride) chelate conjugated to the antibody, sites not stated; chelate loaded with 177Lu
notes: also called Commercial Standard
In the case of B4, the Kd [5] is reported as 2.9 nM.

B5: [^177Lu]-Compound B-HuMIGF-1R (antibody)
light: B1 light
heavy: not shown
modifications: Compound B (DOTA-GA with undecanoyl linker, TFP ester) conjugated to the antibody, sites not stated; chelate loaded with 177Lu
Work on B5 yielded a Kd [5] of 2 nM.
